According to patent publication US8216581 (University of Pennsylvania, dated 2012):

B1: H44L126 (Fab, V domains shown)
VH: QVQLVESGGGVVQPGRSLRLSCAASGFTFSYYAMVWVRQAPGKGLEWVAVISNDGRNKYYADSVKGRFTISRDNAKNTLYLQMNSLRVEDTAVYYCARLGYWGPGTLVTVSS
VL: DIQMTQSPSSLSASVGDRVIVTCRASQSISSYVSWYQQKPGKAPKLLISTTSTLQSGVPSRFSGSASGTDFTLTISSLQPEDFATYYCQQSSSRPLTFGQGTKVEIK
notes: Soluble Fab
B2: H44L127 (Fab, V domains shown)
VH: B1 VH
VL: DIQMTQSPSSLSASVGDRVTITCRASQTITSFLNWYQQKRGKAPKLLIYGASTLQSGVPSRFSGSGSGTDFTLTISSLQPEDVATYYCQQTYSQPLTFGQGTKVEIK
notes: Soluble Fab
B3: H44L4 (Fab, V domains shown)
VH: B1 VH
VL: DIQMTQSPSSLSVSVGDRVTITCRASQTITMYLNWYQQKPGKAPKLLIYAGSSLPSGVPPRFSGSGSGTDFTLTISSLQPEDFATYYCQQSYSTLTFGGGTKVEMK
notes: their results are put here; also called anti-GPIIb/IIIa platelet autoantibody; ITP patient A antibody H44L4
B4: H44L128 (Fab, V domains shown)
VH: B1 VH
VL: DIQMTQSPSSLSAFVGDRVTITCRASQSITSYLNWYQQKPGKAPNLLIYAASSLQSGVPSRFSGSGSGTEFTLTISSLQPEDYATYYCQQRYSYILTFGQGTKVEIK
notes: Soluble Fab

What was measured:
[1] = molecular target: T1, GPIIb/IIIa on intact human platelets (human, UniProt P08514 32-1039; P05106 27-788); experiment: flow cytometry on intact platelets
T1 construct: whole, on cells; also called platelet GPIIb/IIIa; αIIbβ3

[2] = molecular target: T2, immobilized GPIa/IIa (UniProt P17301 30-1181; P05556 21-798); experiment: ELISA (PakAuto kit), soluble Fab
T2 construct: Antigen of the PakAuto ELISA kit
Protocol: Antibodies to platelet GPIIb/IIIa, GPIb/IX, or GPIa/IIa were measured by using a PakAuto kit (GTI, Brookfield, Wis.); those to cardiolipin were assessed with a QuantaLite kit (Inova, San Diego, Calif.).

[3] = molecular target: T3, vitronectin receptor (αvβ3) on CHO cells (UniProt P06756 31-1048; P05106 27-788, limits assumed); experiment: flow cytometry on transfected CHO cells
T3 construct: whole, on cells
T3 sequence (P06756 31-1048 limits assumed, chain 1 of 2): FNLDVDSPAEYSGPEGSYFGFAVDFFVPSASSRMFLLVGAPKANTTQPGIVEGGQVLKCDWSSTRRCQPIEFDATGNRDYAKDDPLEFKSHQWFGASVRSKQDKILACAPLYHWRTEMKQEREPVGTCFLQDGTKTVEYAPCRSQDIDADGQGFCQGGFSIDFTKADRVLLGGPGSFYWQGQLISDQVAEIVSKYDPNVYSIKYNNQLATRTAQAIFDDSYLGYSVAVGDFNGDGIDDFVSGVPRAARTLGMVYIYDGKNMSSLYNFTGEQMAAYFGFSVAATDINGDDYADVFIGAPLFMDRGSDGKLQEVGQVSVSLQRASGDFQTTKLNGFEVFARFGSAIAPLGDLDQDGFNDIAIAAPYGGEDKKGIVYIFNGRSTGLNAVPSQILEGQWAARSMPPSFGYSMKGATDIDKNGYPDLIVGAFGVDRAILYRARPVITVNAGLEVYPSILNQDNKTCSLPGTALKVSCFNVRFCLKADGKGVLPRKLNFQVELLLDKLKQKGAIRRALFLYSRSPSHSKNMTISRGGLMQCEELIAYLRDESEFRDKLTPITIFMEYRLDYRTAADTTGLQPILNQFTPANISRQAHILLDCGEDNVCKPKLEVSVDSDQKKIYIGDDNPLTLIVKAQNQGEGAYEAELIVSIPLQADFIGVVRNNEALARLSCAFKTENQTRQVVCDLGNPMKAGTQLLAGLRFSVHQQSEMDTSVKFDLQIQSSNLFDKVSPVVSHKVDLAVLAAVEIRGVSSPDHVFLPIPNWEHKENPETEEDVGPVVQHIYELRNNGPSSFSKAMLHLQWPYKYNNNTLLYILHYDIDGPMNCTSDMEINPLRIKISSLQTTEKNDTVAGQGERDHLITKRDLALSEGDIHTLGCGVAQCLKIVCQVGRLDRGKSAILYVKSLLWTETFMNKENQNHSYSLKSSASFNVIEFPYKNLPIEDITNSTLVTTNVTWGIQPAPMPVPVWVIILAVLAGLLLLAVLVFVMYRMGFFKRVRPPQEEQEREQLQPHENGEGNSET
T3 sequence (P05106 27-788 limits assumed, chain 2 of 2): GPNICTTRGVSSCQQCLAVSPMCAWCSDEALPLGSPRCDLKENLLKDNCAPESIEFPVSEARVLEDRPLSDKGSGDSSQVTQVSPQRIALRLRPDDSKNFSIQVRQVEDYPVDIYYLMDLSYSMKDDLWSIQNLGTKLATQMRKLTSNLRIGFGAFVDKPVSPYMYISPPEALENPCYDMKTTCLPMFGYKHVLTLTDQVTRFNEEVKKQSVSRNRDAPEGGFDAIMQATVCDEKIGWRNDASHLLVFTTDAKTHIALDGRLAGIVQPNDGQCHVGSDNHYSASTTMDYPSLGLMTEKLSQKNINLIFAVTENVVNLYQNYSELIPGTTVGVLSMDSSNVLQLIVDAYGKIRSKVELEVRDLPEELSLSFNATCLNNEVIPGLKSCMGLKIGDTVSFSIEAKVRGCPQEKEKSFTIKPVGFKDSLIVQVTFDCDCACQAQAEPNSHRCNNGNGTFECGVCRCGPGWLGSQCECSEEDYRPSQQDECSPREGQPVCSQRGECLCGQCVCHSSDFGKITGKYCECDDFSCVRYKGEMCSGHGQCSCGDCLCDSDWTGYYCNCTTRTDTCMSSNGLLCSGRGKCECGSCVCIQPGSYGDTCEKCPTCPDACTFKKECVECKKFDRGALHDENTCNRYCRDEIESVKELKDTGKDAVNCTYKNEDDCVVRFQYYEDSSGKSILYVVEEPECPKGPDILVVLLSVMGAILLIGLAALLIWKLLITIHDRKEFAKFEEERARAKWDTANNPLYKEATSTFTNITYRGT

| Binder | binding result [1] | binding result [2] | binding result [3] |
| --- | --- | --- | --- |
| B1 | no binding |  |  |
| B2 | no binding |  |  |
| B3 |  | no binding | no binding |
| B4 | no binding |  |  |
